Where only a bound is given, the exact number is not on record here.

Test [1] has as its target human CD95 (human) (UniProt P25445). The experiment in a line: cell-based or functional assay.
Test [2] deals with Fc-CD95 (human) (UniProt P25445). The test can be described thus: SPR (BIAcore 2000), biotinylated Fc-CD95 on streptavidin chip, ligand in solution, 1:1 model. (In SPR one partner is held on a chip, and binding of the other changes the refractive index at the surface.)
The target of test [3] is human CD95 (human) (UniProt P25445). The test can be described thus: FACS on KB cells, anti-Flag mAb M2 and PE anti-mouse IgG.
Test [4] has as its target murine CD95 (murine) (UniProt P25446). The experiment in a line: FACS on MBL2-CD95 cells, anti-Flag mAb M2 and PE anti-mouse IgG.
The target of test [5] is TRAILR1 (human) (UniProt O00220). The test can be described thus: cell-based or functional assay.
Chain of UniProt O00220 (O00220 24-468): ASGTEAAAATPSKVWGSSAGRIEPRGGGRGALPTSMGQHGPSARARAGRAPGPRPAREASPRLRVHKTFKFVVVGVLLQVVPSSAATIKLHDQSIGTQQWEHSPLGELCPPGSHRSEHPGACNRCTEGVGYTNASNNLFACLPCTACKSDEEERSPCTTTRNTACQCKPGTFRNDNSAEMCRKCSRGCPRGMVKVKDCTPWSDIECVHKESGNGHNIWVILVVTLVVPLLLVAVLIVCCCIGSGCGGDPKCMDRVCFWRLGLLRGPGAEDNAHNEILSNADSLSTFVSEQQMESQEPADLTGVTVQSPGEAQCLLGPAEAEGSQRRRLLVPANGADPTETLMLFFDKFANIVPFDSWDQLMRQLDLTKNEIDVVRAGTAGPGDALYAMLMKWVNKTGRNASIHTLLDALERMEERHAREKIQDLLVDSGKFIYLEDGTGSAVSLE

Chain of UniProt P25446 (P25446 22-327): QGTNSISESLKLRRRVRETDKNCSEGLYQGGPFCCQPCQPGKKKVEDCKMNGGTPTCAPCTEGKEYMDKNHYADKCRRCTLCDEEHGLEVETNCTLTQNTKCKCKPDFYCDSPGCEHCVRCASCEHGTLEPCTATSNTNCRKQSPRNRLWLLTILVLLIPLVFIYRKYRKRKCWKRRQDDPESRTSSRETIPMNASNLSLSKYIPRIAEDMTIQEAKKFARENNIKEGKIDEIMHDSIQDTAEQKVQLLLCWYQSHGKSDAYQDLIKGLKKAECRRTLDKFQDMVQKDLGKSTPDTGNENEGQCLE

The substance mCD95L(137-279) (ligand) came in with a protection of KB cells from Fc-hCD95L-induced cell death (competition assay) in test [1] greater than 1 µg/mL.

In general, Kd refers to the concentration at which binding is half-saturated. Higher therefore signals a looser complex. On to “Flag-TNC-mCD95L(137-279) (from UniProt P10039 110-139) (ligand)”, for which the Kd in test [2] came to 26 nM.

Flag-hCD95L(137-281) (ligand) had a protection of KB cells from Fc-hCD95L-induced cell death (competition assay) in test [1] of 0.05 µg/mL. The lowest concentration with significant binding in test [3] was determined as 0.3 µg/mL; in test [4], 0.1 µg/mL. In addition, the Kd in test [2] was 39 nM.

Turning to Flag-hTRAIL(95-281) (ligand), the cell death of CHX-sensitized KB cells, no crosslinking (crystal violet) in test [5] came out at 10 ng/mL.
